The record followed here is article PMC3894171, “Defining NELF-E RNA Binding in HIV-1 and Promoter-Proximal Pause Regions”.

The target of data set [1] is T1, hNELF-E(mut) (human, UniProt P18615 1-380, E269N;D270K;M271V;P273E;T274D;L275F). Briefly: F-EMSA; 10 mM HEPES-NaOH pH 7.5, 100 mM NaCl, 25 mM KCl, 1 mM MgCl2, 0.02% Tween-20, 0.01% IGEPAL CA-630, 10 µg/ml yeast tRNA; 2 nM RNA, 0-2000 nM protein, 1-2 h, binding temperature not stated; gel 5% acrylamide 0.5X TBE at 4 °C. The settings on record: protein: recombinant; tags: N-terminal His6 (pHIS-parallel1); label: 3' fluorescein (5-thiosemicarbazide); hairpin with UCU bulge.
T1 sequence (P18615 whole entry E269N/D270K/M271V/P273E/T274D/L275F): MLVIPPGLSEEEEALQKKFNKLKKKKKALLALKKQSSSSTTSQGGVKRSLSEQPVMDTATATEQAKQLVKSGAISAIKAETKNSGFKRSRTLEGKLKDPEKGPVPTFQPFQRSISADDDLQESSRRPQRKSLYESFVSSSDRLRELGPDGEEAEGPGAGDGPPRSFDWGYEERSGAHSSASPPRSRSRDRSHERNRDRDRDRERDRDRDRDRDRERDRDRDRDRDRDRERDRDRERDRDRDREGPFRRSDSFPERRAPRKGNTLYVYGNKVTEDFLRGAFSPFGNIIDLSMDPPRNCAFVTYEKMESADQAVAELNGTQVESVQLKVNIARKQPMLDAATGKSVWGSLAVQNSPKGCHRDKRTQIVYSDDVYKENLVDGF

The target of data set [2] is T2, dNELF-E(mut) (Drosophila, UniProt P92204 1-280, N173E;K174D;V175M;E177P;D178T;F179L).
T2 sequence: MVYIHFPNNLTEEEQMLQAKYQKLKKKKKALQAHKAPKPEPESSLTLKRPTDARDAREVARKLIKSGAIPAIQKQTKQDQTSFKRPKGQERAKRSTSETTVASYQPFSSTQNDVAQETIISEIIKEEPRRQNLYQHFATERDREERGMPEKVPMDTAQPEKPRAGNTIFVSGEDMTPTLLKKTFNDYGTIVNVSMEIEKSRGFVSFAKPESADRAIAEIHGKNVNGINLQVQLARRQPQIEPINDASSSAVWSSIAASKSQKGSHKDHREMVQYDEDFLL
The description is as above. The settings on record: protein: recombinant, tags: N-terminal His6 (pHIS-parallel1), label: 3' fluorescein (5-thiosemicarbazide).

Data set [3] has as its target T1, hNELF-E(mut). The data set is described as follows: fluorescence polarization; 10 mM HEPES-NaOH pH 7.5, 100 mM NaCl, 25 mM KCl, 1 mM MgCl2, 0.02% Tween-20, 0.01% IGEPAL CA-630, 10 µg/ml yeast tRNA; 2 nM RNA, 0-2000 nM protein, 1-2 h, binding temperature not stated; gel 5% acrylamide 0.5X TBE at 4 °C. The following applies: protein: recombinant; tags: N-terminal His6 (pHIS-parallel1); label: 3' fluorescein (5-thiosemicarbazide); hairpin with UCU bulge. On the technique in general: Polarisation of emitted light reports the rotation of a fluorescent probe.

The target in data set [4] is T2, dNELF-E(mut). The description is as above. The settings on record: protein: recombinant, tags: N-terminal His6 (pHIS-parallel1), label: 3' fluorescein (5-thiosemicarbazide).

B1: HIV-1 TAR (structured_RNA)
RNA: GGUCUCUCUGGUUAGACCAGAUCUGAGCCUGGGAGCUCUCUGGCUAACUAGGGAACC
On to B1, for which the Kd in the data set with hNELF-E(mut) [1] was 258 ± 17 nM; with dNELF-E(mut) [2] (hairpin with UCU bulge) it was 270 ± 10 nM; with hNELF-E(mut) [3], 153 ± 7 nM; with dNELF-E(mut) [4] (hairpin with UCU bulge), 130 ± 10 nM.

B2: HIV-1 TAR+A (structured_RNA)
RNA: GGUCUCUCUGGUUAGACCAGAUCUGAGCCUGAGGAGCUCUCUGGCUAACUAGGGAACC
Take B2: the Kd was determined as 233 ± 40 nM in the data set with hNELF-E(mut) [1], 280 ± 30 nM with dNELF-E(mut) [2] (hairpin with UCU bulge), 170 ± 5 nM in the data set with hNELF-E(mut) [3] and 120 ± 10 nM in the data set with dNELF-E(mut) [4] (hairpin with UCU bulge).
Turning to GGCCCCACUGAGGAUGCCCACGGGCGAUUGGGGCCA (structured_RNA) [Napt1min], the Kd with dNELF-E(mut) [2] (putative K-turn stem-loop) came to 350 ± 50 nM; with dNELF-E(mut) [4] (putative K-turn stem-loop), 95 ± 6 nM.

Broadly, the Kd is the concentration at which binding is half-saturated.
